Data taken from PMC9882608, “Structure of an endogenous mycobacterial MCE lipid transporter” (Research Square, 2023).

Target: the molecule itself
Assay: cryo-EM structure

B1: MceG-GFP (MceG, MSMEG_1366, chromosomally tagged with GFP at its C-terminus) (enzyme, UniProt A0QS64 1-360, looked up)
chain: MGVQIDVTGLSKSFGSSKIWEDVTMSIPAGEVSVLLGPSGTGKSVFLKSLIGLLRPERGSIVIDGTDILQCSAKELYEIRTLFGVLFQDGALFGSMNIYDNTAFPLREHTKKSESEIRKIVMEKLDLVGMPNDGHKFPGEISGGMRKRAGLARALVLDPEIILCDEPDSGLDPVRTAYLSQLLIDINAQIDATVLIVTHNINIARTVPDNMGMLFRKQLVMFGPREVLLTSEEPVVKQFLNGRRIGPIGMSEEKDEATAAAEQALVDAGQHDGGVEEIEGVPPQLQATPGMPERKAVARRKARVREILHTLPPAAQAAILEELDRDQPQLSAPTTQTAATAPVENYDDSPTGVIEVPKQA
notes: MceG, ATPase of the MCE ABC transporters, Mycobacterium smegmatis, locus MSMEG_1366; endogenous protein; printed residue numbers run to 360 (residues 1, 256-280 and 326-360 not modelled); also called GFP-tagged MceG; MceG ATPase; not shown: eGFP, C-terminal, kept
In the case of B1, the “stoichiometry N” value is reported as 2.
